Laboratory results from the supplement of paper PMC10724198.
± gives the standard deviation of the averaged measurements.

Experiments:
[1] = test system: Saccharomyces cerevisiae; test: protein stability index of tFT-peptide fusion (C-terminal peptide) (PSI (0-1 scale)); higher = more stable (slower turnover)
Experimental: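 MPS profiling in S. cerevisiae of the tFT-X12 degron library: putative degron peptides plus stable controls, 12 aa, fused to the C-terminus of a sfGFP-mCherry timer. Cells are FACS-sorted into 8 mCherry/sfGFP bins and deep-sequenced. PSI runs from 0 (unstable) to 1 (stable). Backgrounds are wild type, das1Δ and doa10Δ at 30 °C, and wild type, das1Δ, cdc34-1 and cdc53-1 at 37 °C; 2-3 technical replicates each.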

[2] = test system: Saccharomyces cerevisiae; test: as above; conditions: genetic background: wild type; temperature: 30 C
[3] = genetic background: cdc34-1, temperature: 37 C
[4] = genetic background: cdc53-1, temperature: 37 C
[5] = genetic background: das1 deletion, temperature: 30 C
[6] = genetic background: das1 deletion, temperature: 37 C
[7] = genetic background: doa10 deletion, temperature: 30 C
[8] = genetic background: wild type, temperature: 30 C
[9] = genetic background: wild type, temperature: 37 C
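Also: PSI is a weighted mean of sequencing reads over stability bins, variants kept only with over 10 reads, mCherry proximal and sfGFP distal, peptide attached via GGGS linker.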

## SSVFRLKGLMFL
[1]; [3]
  protein stability index: 0.622 ± 0.062
[1]; [4]
  protein stability index: 0.721 ± 0.042
[1]; [5]
  protein stability index: 0.65 ± 0.047
[1]; [6]
  protein stability index: 0.7146 ± 0.0016
[1]; [7]
  protein stability index: 0.262 ± 0.0081
[1]; [8]
  protein stability index: 0.277 ± 0.016
[1]; [9]
  protein stability index: 0.448 ± 0.012
[2]
  protein stability index: 0.442 ± 0.038

## SSVLLMFFCFVC
[1]; [3]
  protein stability index: 0.256 ± 0.02
[1]; [4]
  protein stability index: 0.388 ± 0.015
[1]; [5]
  protein stability index: 0.318 ± 0.014
[1]; [6]
  protein stability index: 0.476 ± 0.025
[1]; [7]
  protein stability index: 0.159 ± 0.012
[1]; [8]
  protein stability index: 0.164 ± 0.011
[1]; [9]
  protein stability index: 0.252 ± 0.019
[2]
  protein stability index: 0.262 ± 0.023

## SSVLWVMFVFFY
[1]; [3]
  protein stability index: 0.313 ± 0.026
[1]; [4]
  protein stability index: 0.387 ± 0.0063
[1]; [5]
  protein stability index: 0.309 ± 0.058
[1]; [6]
  protein stability index: 0.442 ± 0.0026
[1]; [7]
  protein stability index: 0.264 ± 0.0091
[1]; [8]
  protein stability index: 0.253 ± 0.067
[1]; [9]
  protein stability index: 0.387 ± 0.027
[2]
  protein stability index: 0.436 ± 0.058

## SVFGLLSVCFFY
[1]; [3]
  protein stability index: 0.488 ± 0.032
[1]; [4]
  protein stability index: 0.5669 ± 0.002
[1]; [5]
  protein stability index: 0.385 ± 0.029
[1]; [6]
  protein stability index: 0.604 ± 0.0077
[1]; [7]
  protein stability index: 0.358 ± 0.016
[1]; [8]
  protein stability index: 0.398 ± 0.018
[1]; [9]
  protein stability index: 0.549 ± 0.022
[2]
  protein stability index: 0.472 ± 0.019

## SVKRVVPCLVSC
[1]; [3]
  protein stability index: 0.442 ± 0.0081
[1]; [4]
  protein stability index: 0.468 ± 0.0077
[1]; [5]
  protein stability index: 0.332 ± 0.035
[1]; [6]
  protein stability index: 0.525 ± 0.0063
[1]; [7]
  protein stability index: 0.289 ± 0.0049
[1]; [8]
  protein stability index: 0.337 ± 0.022
[1]; [9]
  protein stability index: 0.486 ± 0.0031
[2]
  protein stability index: 0.45 ± 0.063

## SVLSFGVFCLVG
[1]; [3]
  protein stability index: 0.553 ± 0.043
[1]; [4]
  protein stability index: 0.65407 ± 0.00051
[1]; [5]
  protein stability index: 0.524 ± 0.023
[1]; [6]
  protein stability index: 0.61 ± 0.0077
[1]; [7]
  protein stability index: 0.4185 ± 0.0031
[1]; [8]
  protein stability index: 0.427 ± 0.033
[1]; [9]
  protein stability index: 0.527 ± 0.013
[2]
  protein stability index: 0.538 ± 0.13

## SVPRTRAPRLIS
[1]; [3]
  protein stability index: 0.646 ± 0.027
[1]; [4]
  protein stability index: 0.73 ± 0.034
[1]; [5]
  protein stability index: 0.658 ± 0.025
[1]; [6]
  protein stability index: 0.71911 ± 0.00014
[1]; [7]
  protein stability index: 0.184 ± 0.0079
[1]; [8]
  protein stability index: 0.213 ± 0.024
[1]; [9]
  protein stability index: 0.4611 ± 0.00082
[2]
  protein stability index: 0.384 ± 0.041

## SVVFFYPPIFHA
[1]; [3]
  protein stability index: 0.636 ± 0.057
[1]; [4]
  protein stability index: 0.7392 ± 0.006
[1]; [5]
  protein stability index: 0.678 ± 0.053
[1]; [6]
  protein stability index: 0.713 ± 0.016
[1]; [7]
  protein stability index: 0.28 ± 0.0055
[1]; [8]
  protein stability index: 0.326 ± 0.027
[1]; [9]
  protein stability index: 0.549 ± 0.011
[2]
  protein stability index: 0.437 ± 0.044

## SVVYSVWIYLLH
[1]; [3]
  protein stability index: 0.352 ± 0.018
[1]; [4]
  protein stability index: 0.4407 ± 0.0016
[1]; [5]
  protein stability index: 0.292 ± 0.022
[1]; [6]
  protein stability index: 0.484 ± 0.026
[1]; [7]
  protein stability index: 0.175 ± 0.0072
[1]; [8]
  protein stability index: 0.213 ± 0.03
[1]; [9]
  protein stability index: 0.392 ± 0.011
[2]
  protein stability index: 0.309 ± 0.0075

## TEVGAWLLLCRC
[1]; [3]
  protein stability index: 0.271 ± 0.051
[1]; [4]
  protein stability index: 0.307 ± 0.01
[1]; [5]
  protein stability index: 0.268 ± 0.034
[1]; [6]
  protein stability index: 0.403 ± 0.02
[1]; [7]
  protein stability index: 0.231 ± 0.0043
[1]; [8]
  protein stability index: 0.277 ± 0.017
[1]; [9]
  protein stability index: 0.385 ± 0.0097
[2]
  protein stability index: 0.363 ± 0.009

## TFLVWSLMAGDR
[1]; [3]
  protein stability index: 0.449 ± 0.033
[1]; [4]
  protein stability index: 0.5276 ± 0.00077
[1]; [5]
  protein stability index: 0.447 ± 0.023
[1]; [6]
  protein stability index: 0.4667 ± 0.0043
[1]; [7]
  protein stability index: 0.484 ± 0.011
[1]; [8]
  protein stability index: 0.474 ± 0.043
[1]; [9]
  protein stability index: 0.459 ± 0.032
[2]
  protein stability index: 0.464 ± 0.03

## TFRVLAFFCRVV
[1]; [3]
  protein stability index: 0.453 ± 0.0089
[1]; [4]
  protein stability index: 0.538 ± 0.015
[1]; [5]
  protein stability index: 0.47 ± 0.03
[1]; [6]
  protein stability index: 0.616 ± 0.059
[1]; [7]
  protein stability index: 0.308 ± 0.0053
[1]; [8]
  protein stability index: 0.286 ± 0.025
[1]; [9]
  protein stability index: 0.3902 ± 0.0029
[2]
  protein stability index: 0.367 ± 0.012

## TKGIIKKINIIM
[1]; [3]
  protein stability index: 0.624 ± 0.14
[1]; [4]
  protein stability index: 0.73 ± 0.039
[1]; [5]
  protein stability index: 0.617 ± 0.016
[1]; [6]
  protein stability index: 0.724 ± 0.0084
[1]; [7]
  protein stability index: 0.154 ± 0.0088
[1]; [8]
  protein stability index: 0.206 ± 0.035
[1]; [9]
  protein stability index: 0.467 ± 0.09
[2]
  protein stability index: 0.36 ± 0.014

## TLCCLVCSQGVV
[1]; [3]
  protein stability index: 0.478 ± 0.051
[1]; [4]
  protein stability index: 0.598 ± 0.013
[1]; [5]
  protein stability index: 0.471 ± 0.027
[1]; [6]
  protein stability index: 0.5217 ± 0.0031
[1]; [7]
  protein stability index: 0.482 ± 0.031
[1]; [8]
  protein stability index: 0.479 ± 0.039
[1]; [9]
  protein stability index: 0.526 ± 0.01
[2]
  protein stability index: 0.484 ± 0.016

## TLFSPPVLATPS
[1]; [3]
  protein stability index: 0.624 ± 0.042
[1]; [4]
  protein stability index: 0.6754 ± 0.0047
[1]; [5]
  protein stability index: 0.528 ± 0.026
[1]; [6]
  protein stability index: 0.676 ± 0.0092
[1]; [7]
  protein stability index: 0.513 ± 0.021
[1]; [8]
  protein stability index: 0.54 ± 0.014
[1]; [9]
  protein stability index: 0.644 ± 0.0088
[2]
  protein stability index: 0.0225 ± 0.011

## TLLSSIFLCLVL
[1]; [3]
  protein stability index: 0.575 ± 0.018
[1]; [4]
  protein stability index: 0.6448 ± 0.0023
[1]; [5]
  protein stability index: 0.477 ± 0.031
[1]; [6]
  protein stability index: 0.6128 ± 0.0011
[1]; [7]
  protein stability index: 0.466 ± 0.012
[1]; [8]
  protein stability index: 0.462 ± 0.024
[1]; [9]
  protein stability index: 0.574 ± 0.022
[2]
  protein stability index: 0.541 ± 0.1

## TRHIGQYIHKIT
[1]; [3]
  protein stability index: 0.641 ± 0.048
[1]; [4]
  protein stability index: 0.734 ± 0.027
[1]; [5]
  protein stability index: 0.635 ± 0.027
[1]; [6]
  protein stability index: 0.694 ± 0.037
[1]; [7]
  protein stability index: 0.151 ± 0.0037
[1]; [8]
  protein stability index: 0.233 ± 0.049
[1]; [9]
  protein stability index: 0.436 ± 0.0061
[2]
  protein stability index: 0.339 ± 0.081

## TSFLHLFVAAII
[1]; [3]
  protein stability index: 0.588 ± 0.027
[1]; [4]
  protein stability index: 0.632 ± 0.045
[1]; [5]
  protein stability index: 0.499 ± 0.02
[1]; [6]
  protein stability index: 0.5932 ± 0.0013
[1]; [7]
  protein stability index: 0.415 ± 0.009
[1]; [8]
  protein stability index: 0.434 ± 0.012
[1]; [9]
  protein stability index: 0.5505 ± 0.004
[2]
  protein stability index: 0.513 ± 0.024

## TSLPPSPPPSPT
[1]; [3]
  protein stability index: 0.682 ± 0.016
[1]; [4]
  protein stability index: 0.713 ± 0.17
[1]; [5]
  protein stability index: 0.392 ± 0.044
[1]; [6]
  protein stability index: 0.563 ± 0.0085
[1]; [7]
  protein stability index: 0.373 ± 0.014
[1]; [8]
  protein stability index: 0.392 ± 0.012
[1]; [9]
  protein stability index: 0.562 ± 0.033
[2]
  protein stability index: 0.476 ± 0.025
